Like-named read-outs stand apart in the source and are kept apart here.

Data set [1] deals with the molecule itself. Put plainly: mass photometry.
Data set [2] concerns the molecule itself. The experiment in a line: mass photometry. The source holds these as a separate data set.

B1: SPD-5(541-677) (domain or fragment, C. elegans, UniProt P91349 541-677, looked up)
chain: SQSHIPILHDMQQILDSSAMFLEGQHDVAVNVEQMQEKMSQIREALARLFERLKSSAALFEEILERMGSSDPNADKIKKMKLAFETSINDKLNVSAILEAAEKDLHNMSLNFSILEKSIVSQAAEASRRFTIAPDAE
With B1, the “stoichiometry N” value in the data set “mass photometry [1]” is 2.

B2: SPD-5(541-677) phosphorylated by PLK-1(CA) (domain or fragment, C. elegans, UniProt P91349 541-677, looked up)
chain: SQSHIPILHDMQQILDSSAMFLEGQHDVAVNVEQMQEKMSQIREALARLFERLKSSAALFEEILERMGSSDPNADKIKKMKLAFETSINDKLNVSAILEAAEKDLHNMSLNFSILEKSIVSQAAEASRRFTIAPDAE
modifications: phosphorylated by PLK-1(CA) (verified by gel migration shift and MS); sites not printed for this fragment
Regarding B2, in the data set “mass photometry [2]”, the “stoichiometry N” value was found to be 2.

B3: SPD-5(541-677) R592K (domain or fragment, C. elegans, UniProt P91349 541-677, looked up)
chain: SQSHIPILHDMQQILDSSAMFLEGQHDVAVNVEQMQEKMSQIREALARLFEKLKSSAALFEEILERMGSSDPNADKIKKMKLAFETSINDKLNVSAILEAAEKDLHNMSLNFSILEKSIVSQAAEASRRFTIAPDAE
Turning to B3, the “stoichiometry N” value in “mass photometry [1]” was 2.

For the origin of these results see paper doi:10.1101/2023.05.16.540868 (bioRxiv, 2023).
